Experimental data published in article PMC9482650, “Quantitative fragmentomics allow affinity mapping of interactomes” (Nature Communications, 2022).

T1: LRRC7, Q96NW7
T1 sequence (Q96NW7 1440-1537, limits assumed, looked up): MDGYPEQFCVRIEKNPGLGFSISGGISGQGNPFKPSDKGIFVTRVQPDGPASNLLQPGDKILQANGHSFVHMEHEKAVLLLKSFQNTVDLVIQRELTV

T2: DFNB31_1, Q9P202
T2 sequence (Q9P202 135-233, limits assumed, looked up): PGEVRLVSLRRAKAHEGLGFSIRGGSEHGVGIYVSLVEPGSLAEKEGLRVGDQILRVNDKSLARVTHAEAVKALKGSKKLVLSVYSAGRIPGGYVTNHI

T3: DLG3_3, Q92796
T3 sequence (Q92796 374-475, limits assumed, looked up): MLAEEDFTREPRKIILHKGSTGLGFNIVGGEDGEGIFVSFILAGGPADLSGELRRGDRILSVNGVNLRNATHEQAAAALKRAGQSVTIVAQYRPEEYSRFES

T4: SHANK1, Q9Y566
T4 sequence (Q9Y566 658-767, limits assumed, looked up): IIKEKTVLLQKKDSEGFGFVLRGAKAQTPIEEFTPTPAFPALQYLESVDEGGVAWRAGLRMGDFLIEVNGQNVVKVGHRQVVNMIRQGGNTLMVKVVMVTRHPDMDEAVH

T5: ARHGAP21, Q5T5U3
T5 sequence (Q5T5U3 45-169, limits assumed, looked up): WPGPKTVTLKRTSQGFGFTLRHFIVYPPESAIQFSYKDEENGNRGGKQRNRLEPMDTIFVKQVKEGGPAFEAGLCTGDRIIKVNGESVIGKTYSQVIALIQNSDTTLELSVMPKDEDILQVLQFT

T6: SNTG2, Q9NY99
T6 sequence (Q9NY99 68-166, limits assumed, looked up): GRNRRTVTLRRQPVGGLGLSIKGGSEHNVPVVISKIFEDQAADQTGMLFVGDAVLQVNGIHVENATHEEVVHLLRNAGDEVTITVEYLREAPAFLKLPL

T7: SYNJ2BP, P57105
T7 sequence (P57105 8-110, limits assumed, looked up): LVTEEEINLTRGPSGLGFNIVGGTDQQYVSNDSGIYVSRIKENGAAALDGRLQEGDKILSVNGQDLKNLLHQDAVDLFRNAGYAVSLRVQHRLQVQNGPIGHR

T8: MPP2, Q14168
T8 sequence (Q14168 180-250, limits assumed, looked up): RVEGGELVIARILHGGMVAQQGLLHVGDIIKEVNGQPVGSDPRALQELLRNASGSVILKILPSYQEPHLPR

T9: DLG3_2, Q92796
T9 sequence (Q92796 221-321, limits assumed, looked up): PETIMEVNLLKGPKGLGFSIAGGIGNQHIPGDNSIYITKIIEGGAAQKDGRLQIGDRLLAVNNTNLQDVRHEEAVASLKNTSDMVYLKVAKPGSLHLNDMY

T10: PTPN13_1, Q12923
T10 sequence (Q12923 1088-1188, limits assumed, looked up): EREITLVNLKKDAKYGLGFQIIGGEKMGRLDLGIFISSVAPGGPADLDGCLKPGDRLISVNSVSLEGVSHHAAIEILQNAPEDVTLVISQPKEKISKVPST

T11: SIPA1L2, Q9P2F8
T11 sequence (Q9P2F8 945-1036, limits assumed, looked up): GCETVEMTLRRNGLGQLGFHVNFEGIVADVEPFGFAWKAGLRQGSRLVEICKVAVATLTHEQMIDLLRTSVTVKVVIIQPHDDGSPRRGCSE

T12: TJP3_3, O95049
T12 sequence (O95049 375-456, limits assumed, looked up): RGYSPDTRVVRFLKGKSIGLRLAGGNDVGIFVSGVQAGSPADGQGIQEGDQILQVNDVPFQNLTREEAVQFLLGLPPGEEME


These binders were tested against T1, LRRC7, Q96NW7 (assay: holdup assay). Conditions: plain residues with an end cap or a label only (N-terminal biotin on a linker: ttds).
Design: key: below the threshold = too weak to quantify, mostly under pKd 3.1 to 4
In the case of CNTVTVETVV [MAS1, P04201], the pKd is reported as “below the threshold”.

These binders were tested against T2, DFNB31_1, Q9P202 (assay: holdup assay). Conditions: plain residues with an end cap or a label only (N-terminal biotin on a linker: ttds).
Design: key: below the threshold = too weak to quantify, mostly under pKd 3.1 to 4
In the case of CNTVTVETVV [MAS1, P04201], the pKd is reported as “below the threshold”.

What follows are binders tested against DLG4_2, P78352 (assay: holdup assay). Conditions: plain residues with an end cap or a label only (N-terminal biotin on a linker: ttds).
Chain of DLG4_2, P78352 (P78352 155-259): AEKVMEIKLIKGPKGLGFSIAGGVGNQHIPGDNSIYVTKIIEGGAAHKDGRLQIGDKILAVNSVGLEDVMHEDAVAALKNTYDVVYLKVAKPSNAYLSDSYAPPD
Design: key: below the threshold = too weak to quantify, mostly under pKd 3.1 to 4
For CNTVTVETVV [MAS1, P04201], the pKd was 4.45.

Each binder was assayed against NHERF4_2, Q86UT5 (assay: holdup assay). Conditions: plain residues with an end cap or a label only (N-terminal biotin on a linker: ttds).
Chain of NHERF4_2, Q86UT5 (Q86UT5 220-308): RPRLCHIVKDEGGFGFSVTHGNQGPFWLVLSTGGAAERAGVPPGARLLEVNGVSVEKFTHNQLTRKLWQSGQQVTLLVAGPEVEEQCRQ
Design: key: below the threshold = too weak to quantify, mostly under pKd 3.1 to 4
With CNTVTVETVV [MAS1, P04201] the pKd was “below the threshold”.

Each binder was assayed against GRASP, Q7Z6J2 (assay: holdup assay). Conditions: plain residues with an end cap or a label only (N-terminal biotin on a linker: ttds).
Chain of GRASP, Q7Z6J2 (Q7Z6J2 96-193): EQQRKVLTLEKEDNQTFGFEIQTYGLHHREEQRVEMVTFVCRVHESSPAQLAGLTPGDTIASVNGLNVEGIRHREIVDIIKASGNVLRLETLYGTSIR
Design: key: below the threshold = too weak to quantify, mostly under pKd 3.1 to 4
In the case of CNTVTVETVV [MAS1, P04201], the pKd is reported as “below the threshold”.

Each binder was assayed against T3, DLG3_3, Q92796 (assay: holdup assay). Conditions: plain residues with an end cap or a label only (N-terminal biotin on a linker: ttds).
Design: key: below the threshold = too weak to quantify, mostly under pKd 3.1 to 4
In the case of CNTVTVETVV [MAS1, P04201], the pKd is reported as “below the threshold”.

Each binder was assayed against T4, SHANK1, Q9Y566 (assay: holdup assay). Conditions: plain residues with an end cap or a label only (N-terminal biotin on a linker: ttds).
Design: key: below the threshold = too weak to quantify, mostly under pKd 3.1 to 4
CNTVTVETVV [MAS1, P04201] was tested, and the pKd was “below the threshold”.

The binders below were run against T5, ARHGAP21, Q5T5U3 (assay: holdup assay). Conditions: plain residues with an end cap or a label only (N-terminal biotin on a linker: ttds).
Design: key: below the threshold = too weak to quantify, mostly under pKd 3.1 to 4
In the case of CNTVTVETVV [MAS1, P04201], the pKd is reported as “below the threshold”.

What follows are binders tested against T6, SNTG2, Q9NY99 (assay: holdup assay). Conditions: plain residues with an end cap or a label only (N-terminal biotin on a linker: ttds).
Design: key: below the threshold = too weak to quantify, mostly under pKd 3.1 to 4
Binder CNTVTVETVV [MAS1, P04201] has a pKd of 3.93.

These binders were tested against AHNAK1, Q09666 (assay: holdup assay). Conditions: plain residues with an end cap or a label only (N-terminal biotin on a linker: ttds).
Chain of AHNAK1, Q09666 (Q09666 4-100): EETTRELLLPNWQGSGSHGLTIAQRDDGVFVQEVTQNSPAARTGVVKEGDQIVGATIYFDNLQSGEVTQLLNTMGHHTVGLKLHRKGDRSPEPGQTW
Design: key: below the threshold = too weak to quantify, mostly under pKd 3.1 to 4
With CNTVTVETVV [MAS1, P04201] the pKd was “below the threshold”.

What follows are binders tested against LNX1_2, Q8TBB1 (assay: holdup assay). Conditions: plain residues with an end cap or a label only (N-terminal biotin on a linker: ttds).
Chain of LNX1_2, Q8TBB1 (Q8TBB1 371-470): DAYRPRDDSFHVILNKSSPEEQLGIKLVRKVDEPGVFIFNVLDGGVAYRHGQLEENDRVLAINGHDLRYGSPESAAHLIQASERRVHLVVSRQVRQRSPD
Design: key: below the threshold = too weak to quantify, mostly under pKd 3.1 to 4
With CNTVTVETVV [MAS1, P04201] the pKd was “below the threshold”.

Each binder was assayed against T7, SYNJ2BP, P57105 (assay: holdup assay). Conditions: plain residues with an end cap or a label only (N-terminal biotin on a linker: ttds).
Design: key: below the threshold = too weak to quantify, mostly under pKd 3.1 to 4
CNTVTVETVV [MAS1, P04201] gave a pKd of 3.98.

Each binder was assayed against Inadl_6, Q8NI35 (assay: holdup assay). Conditions: plain residues with an end cap or a label only (N-terminal biotin on a linker: ttds).
Chain of Inadl_6, Q8NI35 (Q8NI35 1058-1167): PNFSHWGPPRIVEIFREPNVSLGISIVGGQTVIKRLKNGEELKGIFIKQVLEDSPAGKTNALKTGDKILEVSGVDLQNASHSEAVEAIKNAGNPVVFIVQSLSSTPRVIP
Design: key: below the threshold = too weak to quantify, mostly under pKd 3.1 to 4
With CNTVTVETVV [MAS1, P04201] the pKd was “below the threshold”.

These binders were tested against PTPN3, P26045 (assay: holdup assay). Conditions: plain residues with an end cap or a label only (N-terminal biotin on a linker: ttds).
Chain of PTPN3, P26045 (P26045 505-587): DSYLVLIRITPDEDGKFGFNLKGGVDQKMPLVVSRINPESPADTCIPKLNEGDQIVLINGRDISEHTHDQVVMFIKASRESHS
Design: key: below the threshold = too weak to quantify, mostly under pKd 3.1 to 4
CNTVTVETVV [MAS1, P04201] showed a pKd of 3.8.

These binders were tested against SCRIB_3, Q14160 (assay: holdup assay). Conditions: plain residues with an end cap or a label only (N-terminal biotin on a linker: ttds).
Chain of SCRIB_3, Q14160 (Q14160 999-1103): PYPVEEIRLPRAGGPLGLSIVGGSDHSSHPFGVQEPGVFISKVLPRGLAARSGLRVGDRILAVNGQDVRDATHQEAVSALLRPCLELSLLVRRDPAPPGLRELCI
Design: key: below the threshold = too weak to quantify, mostly under pKd 3.1 to 4
With CNTVTVETVV [MAS1, P04201] the pKd was “below the threshold”.

The binders below were run against T8, MPP2, Q14168 (assay: holdup assay). Conditions: plain residues with an end cap or a label only (N-terminal biotin on a linker: ttds).
Design: key: below the threshold = too weak to quantify, mostly under pKd 3.1 to 4
With CNTVTVETVV [MAS1, P04201] the pKd was “below the threshold”.

What follows are binders tested against T9, DLG3_2, Q92796 (assay: holdup assay). Conditions: plain residues with an end cap or a label only (N-terminal biotin on a linker: ttds).
Design: key: below the threshold = too weak to quantify, mostly under pKd 3.1 to 4
For CNTVTVETVV [MAS1, P04201], the pKd was 4.53.

Each binder was assayed against SCRIB_1, Q14160 (assay: holdup assay). Conditions: plain residues with an end cap or a label only (N-terminal biotin on a linker: ttds).
Chain of SCRIB_1, Q14160 (Q14160 718-814): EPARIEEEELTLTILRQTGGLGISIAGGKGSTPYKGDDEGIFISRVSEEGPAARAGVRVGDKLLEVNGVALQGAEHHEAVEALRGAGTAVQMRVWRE
Design: key: below the threshold = too weak to quantify, mostly under pKd 3.1 to 4
With CNTVTVETVV [MAS1, P04201] the pKd was “below the threshold”.

The binders below were run against T10, PTPN13_1, Q12923 (assay: holdup assay). Conditions: plain residues with an end cap or a label only (N-terminal biotin on a linker: ttds).
Design: key: below the threshold = too weak to quantify, mostly under pKd 3.1 to 4
Binder CNTVTVETVV [MAS1, P04201] has a pKd of 3.57.

What follows are binders tested against FRMPD3, Q5JV73 (assay: holdup assay). Conditions: plain residues with an end cap or a label only (N-terminal biotin on a linker: ttds).
Chain of FRMPD3, Q5JV73 (Q5JV73 12-100): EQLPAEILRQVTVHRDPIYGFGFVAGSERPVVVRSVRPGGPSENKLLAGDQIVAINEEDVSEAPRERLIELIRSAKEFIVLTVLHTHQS
Design: key: below the threshold = too weak to quantify, mostly under pKd 3.1 to 4
For CNTVTVETVV [MAS1, P04201], the pKd was “below the threshold”.

The binders below were run against NHERF2_2, Q15599 (assay: holdup assay). Conditions: plain residues with an end cap or a label only (N-terminal biotin on a linker: ttds).
Chain of NHERF2_2, Q15599 (Q15599 142-238): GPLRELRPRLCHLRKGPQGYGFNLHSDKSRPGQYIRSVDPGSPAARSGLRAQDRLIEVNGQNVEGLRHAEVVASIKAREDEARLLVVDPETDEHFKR
Design: key: below the threshold = too weak to quantify, mostly under pKd 3.1 to 4
In the case of CNTVTVETVV [MAS1, P04201], the pKd is reported as “below the threshold”.

These binders were tested against PDZRN4_1, Q6ZMN7 (assay: holdup assay). Conditions: plain residues with an end cap or a label only (N-terminal biotin on a linker: ttds).
Chain of PDZRN4_1, Q6ZMN7 (Q6ZMN7 213-318): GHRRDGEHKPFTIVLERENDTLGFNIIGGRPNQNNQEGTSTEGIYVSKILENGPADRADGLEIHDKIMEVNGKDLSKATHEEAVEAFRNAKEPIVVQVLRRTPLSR
Design: key: below the threshold = too weak to quantify, mostly under pKd 3.1 to 4
With CNTVTVETVV [MAS1, P04201] the pKd was “below the threshold”.

The binders below were run against T11, SIPA1L2, Q9P2F8 (assay: holdup assay). Conditions: plain residues with an end cap or a label only (N-terminal biotin on a linker: ttds).
Design: key: below the threshold = too weak to quantify, mostly under pKd 3.1 to 4
For CNTVTVETVV [MAS1, P04201], the pKd was “below the threshold”.

The binders below were run against DLG2_2, Q15700 (assay: holdup assay). Conditions: plain residues with an end cap or a label only (N-terminal biotin on a linker: ttds).
Chain of DLG2_2, Q15700 (Q15700 189-283): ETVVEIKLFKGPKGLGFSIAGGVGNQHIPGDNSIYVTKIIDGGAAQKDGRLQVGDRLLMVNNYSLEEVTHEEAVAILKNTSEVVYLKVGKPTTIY
Design: key: below the threshold = too weak to quantify, mostly under pKd 3.1 to 4
Binder CNTVTVETVV [MAS1, P04201] has a pKd of 4.19.

What follows are binders tested against SCRIB_2, Q14160 (assay: holdup assay). Conditions: plain residues with an end cap or a label only (N-terminal biotin on a linker: ttds).
Chain of SCRIB_2, Q14160 (Q14160 857-960): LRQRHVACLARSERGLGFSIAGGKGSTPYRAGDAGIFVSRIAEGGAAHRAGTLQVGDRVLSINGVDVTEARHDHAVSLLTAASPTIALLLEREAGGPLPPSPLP
Design: key: below the threshold = too weak to quantify, mostly under pKd 3.1 to 4
With CNTVTVETVV [MAS1, P04201] the pKd was 3.47.

The binders below were run against T12, TJP3_3, O95049 (assay: holdup assay). Conditions: plain residues with an end cap or a label only (N-terminal biotin on a linker: ttds).
Design: key: below the threshold = too weak to quantify, mostly under pKd 3.1 to 4
CNTVTVETVV [MAS1, P04201] was tested, and the pKd was 3.7.
